Earlier results as cited in paper PMC4819957.

Biological target: Pex3 (Homo sapiens) (UniProt P56589)
Chain of UniProt P56589 (P56589 whole entry): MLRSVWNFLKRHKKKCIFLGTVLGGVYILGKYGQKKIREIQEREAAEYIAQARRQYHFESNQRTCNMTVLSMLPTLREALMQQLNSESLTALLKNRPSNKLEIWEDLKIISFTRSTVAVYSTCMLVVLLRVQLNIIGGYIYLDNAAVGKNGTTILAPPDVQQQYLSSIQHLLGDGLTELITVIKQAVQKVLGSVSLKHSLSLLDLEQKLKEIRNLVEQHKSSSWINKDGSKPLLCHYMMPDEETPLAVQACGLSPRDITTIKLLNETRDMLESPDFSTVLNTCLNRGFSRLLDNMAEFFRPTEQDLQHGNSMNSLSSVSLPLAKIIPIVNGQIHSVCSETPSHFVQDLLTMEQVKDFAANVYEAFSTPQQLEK

Kd: < 0.01 µM
Substance: Pex19 (from UniProt P40855)
